According to patent US20220370608A1 (HUMANITAS MIRASOLE S P A, published 2022):

Target: T1, receptor of advanced glycation end products (RAGE) on NK cells (human, UniProt Q15109 23-404)
T1 construct: whole, on cells; Endogenous receptor on primary NK cells from healthy donors; also called Receptor for Advance Glycation End product
Assay: flow cytometry of RAGE on NK cells treated with rhCHI3L1, and phospho-JNK flow cytometry (binding inferred)
Method: (a) Dot plots for RAGE expression on NK cells (left) and MFI of RAGE expression on NK cells treated with rhCHI3L1. (b) MFI of lytic granules staining in NKs treated with CHI3L1 (50 ng/ml) or anti-RAGE Blocking antibody (10 ug/ml) for 1 h. (c) effect of RAGE blockade on NK cells cytotoxicity (d) Basal P-JNK levels in NK cells treated with CHI3L1 (e) P-JNK levels in NK cells after 10 min of stimulation by RAGE ligand S100A8/A9 (10 ug/ml) alone or with rhCHI3L1 (100 ng/ml) and (f) P-JNK levels in time during ADCC of NK cells incubated with SKBR3 targets at (5:1) E:T ratio. All plots are representative of at least two
Single-cell suspensions, of blood or from cell culture, were obtained and incubated with Fc receptor-blocking antibody before being stained on ice. Dead cells were excluded by live/dead staining using fixable live/dead stain dyes (Thermofisher scientific). Primary NK cells [from healthy donors, after informed consent] were gated as singlets, CD14neg, FSC−. SSC appropriate for lymphocytes, CD3neg, CD16/CD56 poscells. Intracellular staining was performed using a fixation and permeabilization buffer (BD Bioscience). […] Stained cells were analyzed on FACSCanto II cytometer (BD Biosciences). […] Flow cytometry data were analyzed with FlowJo v10 software (Tree Star).

T1 sequence (Q15109 23-404): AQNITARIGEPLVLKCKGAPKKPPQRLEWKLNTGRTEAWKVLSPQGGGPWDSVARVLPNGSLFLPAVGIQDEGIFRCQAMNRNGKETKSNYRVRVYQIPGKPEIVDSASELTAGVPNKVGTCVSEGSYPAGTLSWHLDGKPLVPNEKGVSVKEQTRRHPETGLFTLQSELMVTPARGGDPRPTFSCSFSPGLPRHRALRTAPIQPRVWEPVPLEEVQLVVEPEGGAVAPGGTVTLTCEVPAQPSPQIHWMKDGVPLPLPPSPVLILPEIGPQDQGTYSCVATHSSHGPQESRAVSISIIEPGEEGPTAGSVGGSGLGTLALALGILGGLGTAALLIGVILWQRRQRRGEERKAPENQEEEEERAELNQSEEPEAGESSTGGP

- binding result: binds
B1: recombinant human Chitinase 3-like 1 (rhCHI3L1) (ligand)
chain: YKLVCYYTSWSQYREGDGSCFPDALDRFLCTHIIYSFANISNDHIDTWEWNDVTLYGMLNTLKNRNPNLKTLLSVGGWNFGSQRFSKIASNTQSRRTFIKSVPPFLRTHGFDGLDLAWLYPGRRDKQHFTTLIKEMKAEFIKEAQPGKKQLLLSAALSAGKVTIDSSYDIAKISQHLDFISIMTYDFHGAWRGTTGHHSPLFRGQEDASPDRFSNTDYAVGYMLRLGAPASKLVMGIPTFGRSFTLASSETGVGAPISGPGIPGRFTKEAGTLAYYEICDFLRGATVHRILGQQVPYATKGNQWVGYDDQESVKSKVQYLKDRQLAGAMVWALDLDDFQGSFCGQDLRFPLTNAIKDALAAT
notes: Recombinant protein; also called YKL-40; CHI311
